Experimental findings from patent US20190300590A1 (PROTAGONIST THERAPEUTICS, published 2019) are described below.

Like-named read-outs stand apart in the source and are kept apart here. *1 amine or outer side, *2 acyl side, *3 side chain or, on linkers, in order; H or OH if unused. Bridges are numbered along the chain shown (N, C = ends). [ ]: non-standard residue; d: D form. Phe(4-OMe) = 4-methoxy-L-phenylalanine (O-methyl-L-tyrosine), COc1ccc(C[C@H](N[*:1])C(=O)[*:2])cc1; 2Nal = N[C@@H](Cc1ccc2ccccc2c1)C(=O)O; AEF = NCCOc1ccc(C[C@H](N)C(=O)O)cc1; NMeQ = CN[C@@H](CCC(N)=O)C(=O)O; αMeK = C[C@](N)(CCCCN)C(=O)O; αMeV = CC(C)[C@](C)(N)C(=O)O; Thp = NC1(C(=O)O)CCOCC1; Abu = CC[C@H](N)C(=O)O; Aib = CC(C)(N)C(=O)O; AEA = NCCOCC(=O)O

One experiment concerns the target T1, IL-23R on DB cells (human, UniProt Q5VWK5 24-629).
T1 sequence (looked up): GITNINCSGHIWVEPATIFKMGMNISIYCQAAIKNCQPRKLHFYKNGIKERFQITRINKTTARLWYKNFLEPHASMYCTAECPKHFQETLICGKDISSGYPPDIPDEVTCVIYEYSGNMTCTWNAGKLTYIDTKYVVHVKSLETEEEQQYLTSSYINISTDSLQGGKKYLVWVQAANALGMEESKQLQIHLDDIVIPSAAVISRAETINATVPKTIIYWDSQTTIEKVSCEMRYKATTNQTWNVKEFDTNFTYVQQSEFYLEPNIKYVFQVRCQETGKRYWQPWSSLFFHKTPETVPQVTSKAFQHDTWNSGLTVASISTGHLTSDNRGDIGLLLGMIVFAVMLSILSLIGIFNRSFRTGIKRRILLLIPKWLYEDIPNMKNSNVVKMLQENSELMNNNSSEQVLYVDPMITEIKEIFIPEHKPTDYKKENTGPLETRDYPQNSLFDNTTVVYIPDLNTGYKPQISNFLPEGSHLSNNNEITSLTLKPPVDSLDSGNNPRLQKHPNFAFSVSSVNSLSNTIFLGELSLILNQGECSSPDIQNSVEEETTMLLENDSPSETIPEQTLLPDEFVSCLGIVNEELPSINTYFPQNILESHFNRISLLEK
As to the kind of experiment: cell-based or functional assay.

Experiment [1] concerns the target T2, IL-23R on human cells (IL-23R-expressing DB cells; human NK cells) (human, UniProt Q5VWK5 24-629).
T2 sequence (looked up): T1 sequence (looked up)
As to the kind of experiment: cell-based or functional assay.

Experiment [2] has as its target T2, IL-23R on human cells …. The experiment can be described thus: cell-based or functional assay. This is another data set of the same source.
In experiment [3] the target is Rat IL-23R_huFC (rat). As to the kind of experiment: rat ELISA vs IL-23. (In an ELISA, binding on a coated surface is turned into a signal by an enzyme label.)
Experiment [4] has as its target T3, IL23R_huFC (human, UniProt Q5VWK5 24-353).
T3 sequence (looked up): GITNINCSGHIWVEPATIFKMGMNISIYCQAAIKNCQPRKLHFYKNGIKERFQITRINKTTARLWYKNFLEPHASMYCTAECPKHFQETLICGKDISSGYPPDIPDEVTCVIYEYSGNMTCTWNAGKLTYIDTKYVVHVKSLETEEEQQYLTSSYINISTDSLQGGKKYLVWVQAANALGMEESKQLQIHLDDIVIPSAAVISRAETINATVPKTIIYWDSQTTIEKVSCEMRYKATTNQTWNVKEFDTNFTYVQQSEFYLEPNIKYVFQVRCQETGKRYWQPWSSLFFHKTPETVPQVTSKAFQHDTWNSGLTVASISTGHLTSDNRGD
As to the kind of experiment: human ELISA vs IL-23.

The target in experiment [5] is Rat IL-23R_huFC (rat). The experiment can be described thus: rat ELISA vs IL-23. The source holds these as a separate data set.
Experiment [6] deals with T3, IL23R_huFC. The experiment can be described thus: human ELISA vs IL-23. The source holds these as a separate data set.
The target in experiment [7] is Rat IL-23R_huFC (rat). As to the kind of experiment: rat ELISA vs IL-23. This is another data set of the same source.
Experiment [8] addresses T4, Rat IL-23R_huFC (rat; human, UniProt F1LX96 39-369).
T4 sequence: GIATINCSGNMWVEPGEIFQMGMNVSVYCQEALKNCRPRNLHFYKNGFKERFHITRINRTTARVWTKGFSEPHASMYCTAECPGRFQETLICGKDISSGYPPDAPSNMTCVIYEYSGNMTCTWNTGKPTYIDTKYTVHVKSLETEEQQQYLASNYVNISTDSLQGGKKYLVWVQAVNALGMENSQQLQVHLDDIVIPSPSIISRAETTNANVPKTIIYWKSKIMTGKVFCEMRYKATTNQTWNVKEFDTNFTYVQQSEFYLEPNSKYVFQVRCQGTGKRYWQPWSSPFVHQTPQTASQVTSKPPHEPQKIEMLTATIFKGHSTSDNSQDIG
The experiment can be described thus: rat IL-23R competitive ELISA.

B1: [Ac-[Pen]-NTWQ-[Pen]-[Phe(4-OMe)]-[2-Nal]-[Aib]-KNN-NH2]2DIG (peptide)
peptide: XNTWQXFXXKNN
modifications: Ac; Pen-Pen disulfide; Phe(4-OMe); 2-Nal; Aib; NH2; DIG linker joins the two subunits
For the molecule B1, in the experiment with IL-23R on DB cells, the “pStat3 HTRF IC50” value was less than 10 nM.

B2: [Ac-[Pen]-NTWQ-[Pen]-[Phe(4-CONH2)]-[2-Nal]-[4-amino-4-carboxy-tetrahydropyran]-KNN-NH2]2DIG (peptide)
peptide: XNTWQXFXXKNN
modifications: Ac; Pen-Pen disulfide; Phe(4-CONH2); 2-Nal; 4-amino-4-carboxy-tetrahydropyran; NH2; DIG linker joins the two subunits
As for B2, in the experiment with IL-23R on DB cells, the “pStat3 HTRF IC50” value was less than 10 nM.

B3: Ac-Cyclo-[[Abu]-QTWQC]-[Phe(4-OMe)]-[2-Nal]-[α-MeLys]-ENG-NH2 (peptide)
peptide: Ac-[Abu]QTWQC[Phe(4-OMe)][2Nal][αMeK]ENG-NH2
modifications: thioether 1-6
A word on the IC50: it is the concentration needed to halve the response being measured. Low readings indicate greater potency, high ones weaker potency. Take B3: in experiment [1], the “pStat3 HTRF IC50” value is less than 10 nM. The “NK cell assay IC50 (IFNγ)” value in experiment [2] is less than 25 nM. The IC50 with Rat IL-23R_huFC [3] and with IL23R_huFC [4] was 10 to 25 nM each time.

B4: Ac-Cyclo-[[Abu]-QTWQC]-[Phe[4-(2-aminoethoxy)]]-[2-Nal]-α-MeVal]-[Lys(Ac)]-NG-NH2 (peptide)
peptide: Ac-[Abu]QTWQC[AEF][2Nal][αMeV]K(Ac)NG-NH2
modifications: thioether 1-6
With B4, the IC50 with Rat IL-23R_huFC [5] and with IL23R_huFC [6] was less than 10 nM each time. Also, the “pStat3 HTRF IC50” value in [1] is less than 10 nM. In experiment [2], the “NK cell assay IC50 (IFNγ)” value is less than 25 nM.

B5: Ac-Cyclo-[[Abu]-QTWQC]-[Phe[4-(2-aminoethoxy)]]-[2-Nal]-[α-MeLys]-ENQ-NH2 (peptide)
peptide: Ac-[Abu]QTWQC[AEF][2Nal][αMeK]ENQ-NH2
modifications: thioether 1-6
Consider B5, for which the IC50 with Rat IL-23R_huFC [5] and with IL23R_huFC [6] was less than 10 nM in each case. In addition, the “pStat3 HTRF IC50” value in [1] was less than 10 nM. Moreover, in [2], the “NK cell assay IC50 (IFNγ)” value was less than 25 nM.

B6: Ac-Cyclo-[[Abu]-QTWQC]-[Phe[4-(2-aminoethoxy)]]-[2-Nal]-[α-MeLys]-ENN-NH2 (peptide)
peptide: Ac-[Abu]QTWQC[AEF][2Nal][αMeK]ENN-NH2
modifications: thioether 1-6
On to B6, for which the half-maximal inhibitory concentration (IC50) with Rat IL-23R_huFC [5] and with IL23R_huFC [6] was less than 10 nM throughout. For the same molecule, the “pStat3 HTRF IC50” value in experiment [1] was less than 10 nM. The “NK cell assay IC50 (IFNγ)” value in experiment [2] is less than 25 nM.

B7: Ac-Cyclo-[[Abu]-QTWQC]-[2-Nal]-[2-Nal]-[α-MeOrn]-[Lys(Ac)]-NG-NH2 (peptide)
peptide: XQTWQCXXXKNG
modifications: as bracketed in name; thioether cyclo
Regarding B7, in the experiment with Rat IL-23R_huFC [7], the IC50 fell in the range of 100 to 1000 nM.

B8: [Ac-[Pen]-NTWQ-[Pen]-[Phe(4-OMe)]-[2-Nal]-[4-amino-4-carboxy-tetrahydropyran]-KNN-NH2]2DIG (peptide)
peptide: XNTWQXFXXKNN
modifications: Ac; Pen-Pen disulfide; Phe(4-OMe); 2-Nal; 4-amino-4-carboxy-tetrahydropyran; NH2; DIG linker joins the two subunits
Take B8: in the experiment with IL-23R on DB cells, the “pStat3 HTRF IC50” value is less than 10 nM.

B9: Ac-Cyclo-[[Abu]-QTWQC]-[Phe[4-(2-aminoethoxy)]]-[2-Nal]-[4-amino-4-carboxy-tetrahydropyran]-ENN-NH2 (peptide)
peptide: Ac-[Abu]QTWQC[AEF][2Nal][Thp]ENN-NH2
modifications: thioether 1-6
B9: the half-inhibitory concentration (IC50) with Rat IL-23R_huFC [5] and in the experiment with IL23R_huFC [6] was less than 10 nM in each case. The “pStat3 HTRF IC50” value in experiment [1] is less than 10 nM. Moreover, in experiment [2], the “NK cell assay IC50 (IFNγ)” value is less than 25 nM.

B10: Ac-Cyclo-[[Abu]-QTWQC]-[Phe[4-(2-aminoethoxy)]]-[2-Nal]-[Aib]-[Lys(Ac)]-NA-NH2 (peptide)
peptide: Ac-[Abu]QTWQC[AEF][2Nal][Aib]K(Ac)NA-NH2
modifications: thioether 1-6
With B10, the IC50 with IL23R_huFC [6] is less than 10 nM; with Rat IL-23R_huFC [3], 10 to 25 nM. Moreover, in experiment [1], the “pStat3 HTRF IC50” value was less than 10 nM. Besides, in experiment [2], the “NK cell assay IC50 (IFNγ)” value is less than 25 nM.

B11: Ac-Cyclo-[[Abu]-QTWQC]-[Phe[4-(2-aminoethoxy)]]-[2-Nal]-[Aib]-QNG-NH2 (peptide)
peptide: Ac-[Abu]QTWQC[AEF][2Nal][Aib]QNG-NH2
modifications: thioether 1-6
Consider B11, for which the IC50 with IL23R_huFC [6] was less than 10 nM; with Rat IL-23R_huFC [3], 10 to 25 nM. Besides, in experiment [1], the “pStat3 HTRF IC50” value was less than 10 nM. In [2], the “NK cell assay IC50 (IFNγ)” value is less than 25 nM.

B12: [Ac-[Pen]-NTWQ-[Pen]-[Phe(4-CONH2)]-[2-Nal]-[Acvc]-KNN-NH2]2DIG (peptide)
peptide: XNTWQXFXXKNN
modifications: Ac; Pen-Pen disulfide; Phe(4-CONH2); 2-Nal; Acvc; NH2; DIG linker joins the two subunits
B12: the “pStat3 HTRF IC50” value with IL-23R on DB cells was less than 10 nM.

B13: [Ac-[Pen]-NTWQ-[Pen]-[Phe(4-OMe)]-[2-Nal]-[Acvc]-KNN-NH2]2DIG (peptide)
peptide: XNTWQXFXXKNN
modifications: Ac; Pen-Pen disulfide; Phe(4-OMe); 2-Nal; Acvc; NH2; DIG linker joins the two subunits
Take B13: the “pStat3 HTRF IC50” value in the experiment with IL-23R on DB cells was less than 10 nM.

B14: Ac-C-[N-MeQln]-TWQCYWRVFG-[AEA]-[(D)Lys]-NH2 (peptide)
peptide: Ac-C[NMeQ]TWQCYWRVFG[AEA][dK]-NH2
modifications: disulfide 1-6 (inferred)
B14 registered an IC50 with Rat IL-23R_huFC [8] of 85 nM.

B15: Ac-CNTWQCYWRVFG-[AEA]-[(D)Lys]-NH2 (peptide)
peptide: Ac-CNTWQCYWRVFG[AEA][dK]-NH2
modifications: disulfide 1-6 (inferred)
Regarding B15, in the experiment with Rat IL-23R_huFC [8], the IC50 is 79 nM.

B16: Ac-Cyclo-[[Abu]-QTWQ-[Pen]]-[Phe(4-OMe)]-[2-Nal][α-MeLys]-[Lys(Ac)]NG-NH2 (peptide)
peptide: XQTWQXFXKKNG
modifications: as bracketed in name; thioether cyclo
As to B16, in the experiment with Rat IL-23R_huFC [7], the IC50 was 100 to 1000 nM.

B17: Ac-CRTWQCYWRENGA-[(D)Lys]-NH2 (peptide)
peptide: Ac-CRTWQCYWRENGA[dK]-NH2
modifications: cysteine pairing not given here
In the experiment with Rat IL-23R_huFC [8], B17 showed an IC50 of 86 nM.
